Tests used:
Assay in all cases: SPOT array
[1] = biological target: Sho1 SH3 (SHO1_YEAST), P40073
[2] = biological target: T1, Myo5 SH3 (MYO5_YEAST), Q04439
T1 chain: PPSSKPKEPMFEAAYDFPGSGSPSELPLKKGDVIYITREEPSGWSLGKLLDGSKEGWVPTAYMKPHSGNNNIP

[3] = biological target: T2, Boi2 SH3 (BOI2_YEAST), P39969
T2 chain: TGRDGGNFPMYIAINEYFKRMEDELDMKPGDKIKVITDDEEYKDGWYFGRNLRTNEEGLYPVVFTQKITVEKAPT

[4] = biological target: T3, Boi1 SH3 (BOI1_YEAST), P38041
T3 chain: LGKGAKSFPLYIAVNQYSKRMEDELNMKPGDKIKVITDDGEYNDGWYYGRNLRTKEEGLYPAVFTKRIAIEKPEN

[5] = biological target: T4, Yhr016c SH3 (YSC84_YEAST), P32793
T4 chain: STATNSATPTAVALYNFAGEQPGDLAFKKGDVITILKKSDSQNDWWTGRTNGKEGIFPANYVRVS

[6] = biological target: T5, Rvs167 SH3 (RV167_YEAST), P39743
T5 chain: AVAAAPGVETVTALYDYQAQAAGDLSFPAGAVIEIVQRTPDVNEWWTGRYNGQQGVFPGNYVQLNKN

[7] = biological target: T6, Yfr024 SH3 (LSB3_YEAST), P43603
T6 chain: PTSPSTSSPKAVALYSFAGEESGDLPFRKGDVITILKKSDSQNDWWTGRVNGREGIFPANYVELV

Sho1 SH3 (SHO1_YEAST), P40073, sequence (P40073 295-366): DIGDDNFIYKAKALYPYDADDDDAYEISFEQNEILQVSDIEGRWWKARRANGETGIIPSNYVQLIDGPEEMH

With LRKPRAPMRNVIIT [449-462 cytochrome oxidase assembly factor] the normalised SPOT signal, Boehringer light units (BLU); mean over the file's lines of this peptide [1] was 184.

In the case of MVRPAPPRRADPEG [11-24 Hypothetical ORF], the normalised SPOT signal, Boehringer light units (BLU); mean over the file's lines of this peptide [1] is reported as 608.

NKIPKHLPADPIFS [YCR032W 1499-1512] showed a normalised SPOT signal, Boehringer light units (BLU); mean over the file's lines of this peptide [2] of 278, a normalised SPOT signal, Boehringer light units (BLU); mean over the file's lines of this peptide [3] of 21 and a normalised SPOT signal, Boehringer light units (BLU); mean over the file's lines of this peptide [4] of 187. The normalised SPOT signal, Boehringer light units (BLU); mean over the file's lines of this peptide [5] was 90.5, the normalised SPOT signal, Boehringer light units (BLU); mean over the file's lines of this peptide [1] was 67.2 and the normalised SPOT signal, Boehringer light units (BLU); mean over the file's lines of this peptide [6] was 67.8. The normalised SPOT signal, Boehringer light units (BLU); mean over the file's lines of this peptide [7] was 835.

LVQPNVPEKHNMST [144-157 Hypothetical ORF] showed a normalised SPOT signal, Boehringer light units (BLU); mean over the file's lines of this peptide [1] of 182.

Binder NIPTKSPPKSPKHK [YLL065W 94-107] has a normalised SPOT signal, Boehringer light units (BLU); mean over the file's lines of this peptide [2] of 12500, a normalised SPOT signal, Boehringer light units (BLU); mean over the file's lines of this peptide [3] of 1.2 and a normalised SPOT signal, Boehringer light units (BLU); mean over the file's lines of this peptide [4] of 743. For the same binder, the normalised SPOT signal, Boehringer light units (BLU); mean over the file's lines of this peptide [5] was 198, the normalised SPOT signal, Boehringer light units (BLU); mean over the file's lines of this peptide [1] was 53 and the normalised SPOT signal, Boehringer light units (BLU); mean over the file's lines of this peptide [6] was 64.5. The normalised SPOT signal, Boehringer light units (BLU); mean over the file's lines of this peptide [7] was 518.

In the case of MSLPVTPVKSKVSS [50-63 Putative participant in 3' mRNA processing], the normalised SPOT signal, Boehringer light units (BLU); mean over the file's lines of this peptide [1] is reported as 284.

MVLPPAPPKNSDPS [764-777 mitohcondrial RNA polymerase] was tested, and the normalised SPOT signal, Boehringer light units (BLU); mean over the file's lines of this peptide [1] was 141.

Work on NITEKSPPKSPKHK [YDR543C 77-90] yielded a normalised SPOT signal, Boehringer light units (BLU); mean over the file's lines of this peptide [2] of 292, a normalised SPOT signal, Boehringer light units (BLU); mean over the file's lines of this peptide [3] of 18.7 and a normalised SPOT signal, Boehringer light units (BLU); mean over the file's lines of this peptide [4] of 3420. It also gave a normalised SPOT signal, Boehringer light units (BLU); mean over the file's lines of this peptide [5] of 110, a normalised SPOT signal, Boehringer light units (BLU); mean over the file's lines of this peptide [1] of 74.8 and a normalised SPOT signal, Boehringer light units (BLU); mean over the file's lines of this peptide [6] of 124. For the same binder, the normalised SPOT signal, Boehringer light units (BLU); mean over the file's lines of this peptide [7] was 187.

Binder LTLPFGPVKSIWLS [189-202 glucosyltransferase] has a normalised SPOT signal, Boehringer light units (BLU); mean over the file's lines of this peptide [1] of 96.7.

Binder LRLPEIPPKGDFDV [1327-1340 mitohcondrial RNA polymerase] has a normalised SPOT signal, Boehringer light units (BLU); mean over the file's lines of this peptide [1] of 977.

Work on MVTPSKPPKKSVGF [147-160 Hypothetical ORF] yielded a normalised SPOT signal, Boehringer light units (BLU); mean over the file's lines of this peptide [1] of 749.

MALPRTPLKTSTEE [276-289 Small regulatory subunit of Acetolactate synthase] showed a normalised SPOT signal, Boehringer light units (BLU); mean over the file's lines of this peptide [1] of 1100.

NAPPYVPQRSKQPD [165-178 " Radiation repair protein, putative DNA helicase"] was tested, and the normalised SPOT signal, Boehringer light units (BLU); mean over the file's lines of this peptide [1] was 143.

With MKAPKMPDKHRDNY [923-936 similar to RNA helicases] the normalised SPOT signal, Boehringer light units (BLU); mean over the file's lines of this peptide [1] was 181.

NHIPPFPLRFSFAQ [532-545 Hypothetical ORF] gave a normalised SPOT signal, Boehringer light units (BLU); mean over the file's lines of this peptide [1] of 184.

LPVPQLPPKLLVYP [17-30 RNA polymerase II-associated protein] gave a normalised SPOT signal, Boehringer light units (BLU); mean over the file's lines of this peptide [1] of 16.2.

With NKPKRKRPAPPKKK [YFR013W 78-91] the normalised SPOT signal, Boehringer light units (BLU); mean over the file's lines of this peptide [2] was 872, the normalised SPOT signal, Boehringer light units (BLU); mean over the file's lines of this peptide [3] was 22.9 and the normalised SPOT signal, Boehringer light units (BLU); mean over the file's lines of this peptide [4] was 635. For the same binder, the normalised SPOT signal, Boehringer light units (BLU); mean over the file's lines of this peptide [5] was 81.6, the normalised SPOT signal, Boehringer light units (BLU); mean over the file's lines of this peptide [1] was 88.2 and the normalised SPOT signal, Boehringer light units (BLU); mean over the file's lines of this peptide [6] was 83.6. It also gave a normalised SPOT signal, Boehringer light units (BLU); mean over the file's lines of this peptide [7] of 568.

In the case of LSTPSAPAKINNYS [605-618 Hypothetical ORF], the normalised SPOT signal, Boehringer light units (BLU); mean over the file's lines of this peptide [1] is reported as 67.

MEYPFKPPKMQFDT [60-73 ubiquitin-conjugating enzyme] was tested, and the normalised SPOT signal, Boehringer light units (BLU); mean over the file's lines of this peptide [1] was 164.

With LPPPIIPLRKYGHN [693-706 Pho85 kinase inhibitor] the normalised SPOT signal, Boehringer light units (BLU); mean over the file's lines of this peptide [1] was 109.

In the case of LRDPVIPIKLAAEK [2564-2577 translational activator of GCN4 through activation of GCN2 in response to starvation], the normalised SPOT signal, Boehringer light units (BLU); mean over the file's lines of this peptide [1] is reported as 122.

With LSKPSKPLKEIRFD [101-114 Hypothetical ORF] the normalised SPOT signal, Boehringer light units (BLU); mean over the file's lines of this peptide [1] was 477.

LVQPVVPDKVFSFR [368-381 Hypothetical ORF] showed a normalised SPOT signal, Boehringer light units (BLU); mean over the file's lines of this peptide [1] of 46.1.

NEYPSKPPKVKFPA [66-79 ubiquitin-conjugating enzyme] gave a normalised SPOT signal, Boehringer light units (BLU); mean over the file's lines of this peptide [1] of 330.

For LTSPKNPIKSVTKF [569-582 translation termination factor eRF3], the normalised SPOT signal, Boehringer light units (BLU); mean over the file's lines of this peptide [1] was 148.

In the case of LPVPPPPVRPSISF [239-252 RNA polymerase II large subunit], the normalised SPOT signal, Boehringer light units (BLU); mean over the file's lines of this peptide [1] is reported as 172.

LPAPHRPEKYKERF [67-80 Hypothetical ORF] gave a normalised SPOT signal, Boehringer light units (BLU); mean over the file's lines of this peptide [1] of 173.

For NLKTKSHPEVPRLD [YLR189C 152-165], the normalised SPOT signal, Boehringer light units (BLU); mean over the file's lines of this peptide [2] was 363, the normalised SPOT signal, Boehringer light units (BLU); mean over the file's lines of this peptide [3] was 142 and the normalised SPOT signal, Boehringer light units (BLU); mean over the file's lines of this peptide [4] was 426. For the same binder, the normalised SPOT signal, Boehringer light units (BLU); mean over the file's lines of this peptide [5] was 2740, the normalised SPOT signal, Boehringer light units (BLU); mean over the file's lines of this peptide [1] was 104 and the normalised SPOT signal, Boehringer light units (BLU); mean over the file's lines of this peptide [6] was 1080. For the same binder, the normalised SPOT signal, Boehringer light units (BLU); mean over the file's lines of this peptide [7] was 327.

LSSPSLPPKVNATN [325-338 Guanosine diphosphatase of Golgi membrane] gave a normalised SPOT signal, Boehringer light units (BLU); mean over the file's lines of this peptide [1] of 88.

In the case of LVTPEEPAKNKSER [13-26 Hypothetical ORF], the normalised SPOT signal, Boehringer light units (BLU); mean over the file's lines of this peptide [1] is reported as 102.

NDDPVIPYKLSKDT [1037-1050 DNA replication helicase] showed a normalised SPOT signal, Boehringer light units (BLU); mean over the file's lines of this peptide [1] of 201.

NANPFLPNKHPVTQ [38-51 Mitochondrial ribosomal protein MRPL25 (YmL25)] was tested, and the normalised SPOT signal, Boehringer light units (BLU); mean over the file's lines of this peptide [1] was 210.

With LSLPRLPNKHHWPL [116-129 Hypothetical ORF] the normalised SPOT signal, Boehringer light units (BLU); mean over the file's lines of this peptide [1] was 2570.

With LRSPNTPRRLRKTL [198-211;312-325;376-389;96-109 Hypothetical ORF;Y'-helicase protein 1] the normalised SPOT signal, Boehringer light units (BLU); mean over the file's lines of this peptide [1] was 200.

Work on LQIPPLPLKLLTPV [307-320 encodes the cytoplasmic trifunctional enzyme C1-tetrahydrofolate synthase] yielded a normalised SPOT signal, Boehringer light units (BLU); mean over the file's lines of this peptide [1] of 48.1.

For LPPPRSPNRPTLSD [363-376 Hypothetical ORF], the normalised SPOT signal, Boehringer light units (BLU); mean over the file's lines of this peptide [1] was 91.7.

In the case of LNSPDLPERTKLRN [445-458 Septin homolog], the normalised SPOT signal, Boehringer light units (BLU); mean over the file's lines of this peptide [1] is reported as 110.

Work on MLIPNFPNKKLKLN yielded a normalised SPOT signal, Boehringer light units (BLU); mean over the file's lines of this peptide [1] of 415.

Binder LRRPIFPGRDYRHQ [218-231 cdc2+/CDC28 related kinase with positive role in conjugation] has a normalised SPOT signal, Boehringer light units (BLU); mean over the file's lines of this peptide [1] of 112.
